From PMC5817203, “Characterization of feedback-resistant mevalonate kinases from the methanogenic archaeons Methanosaeta concilii and Methanocella paludicola” (Microbiology, 2017)

Columns and labels:
[1] = target: mevalonate kinase from Methanosaeta concilii GP6 (Methanosaeta concilii GP6); assay: SEC; gel filtration of the purified enzyme; apparent mass compared with the mass calculated from the sequence; column and buffer not told
[2] = target: the molecule itself; assay: as above

Work on “mevalonate kinase from Methanosaeta concilii GP6 (enzyme)” yielded a stoichiometry N [1] of 4.

B1: mevalonate kinase from Methanocella paludicola SANAE (enzyme, UniProt D1YZ39 1-299, looked up)
chain: MTMCSAPGKVFLFGEHAVVYGKRAIACAIDLRTTVEVSRKSRGVHIHSAFKDEPDKNLYIKTAVKRMQKCADIRNVNIAVSSRIPVASGLGSSAAVTVATIGALNEEFSAGLSKKDIAYMAYQTELEVQGAASPTDTFVSTMGGTVVVPDMRTLPPITCGIVVGHTGISKSTSRMVSRVRTLKEKYPDVIDGIMDSIGDISARGEDLIKQNDYRSIGELMNVNQGLLDALGITIPELSLQIYAARQHGAYGAKITGAGGGGCMVAICDDKNCKEIATAIGRSYGDSFISKPTAEGIFIQ
notes: codon-optimised synthetic gene, coding part cloned NdeI/EcoRI into pET-28b(+); No tag removal is described; also called MVK^mpd; mpd; source: E. coli BL21 (DE3), pET-28b(+), purified (His-Trap HP, dialysis)
In the case of B1, the “stoichiometry N” value [2] is reported as 2.
